This is an account of results in PMC2892007.

Test [1] deals with LigA LigAVar11 (Leptospira interrogans) (UniProt Q72MA6). In words: SPR.
Test [2] deals with LigA LigAVar12 (Leptospira interrogans) (UniProt Q72MA6). Description: SPR.
Test [3] addresses LigA LigAVar10 (Leptospira interrogans) (UniProt Q72MA6). Description: SPR.
In test [4] the target is LigA LigAVar7'-8 (Leptospira interrogans) (UniProt Q72MA6). Description: SPR.
Test [5] addresses LigA LigAVar13 (Leptospira interrogans) (UniProt Q72MA6). Description: SPR.
Test [6] addresses LigA LigAVar10 (Leptospira interrogans) (UniProt Q72MA6). Description: ELISA.
The target in test [7] is LigA LigAVar13 (Leptospira interrogans) (UniProt Q72MA6). In words: ELISA.
The target in test [8] is Alexa-488 labeled LigBCen2RW1073C (Leptospira; L. interrogans serovar Pomona is the only strain named). Description: other fluorescence titration.
Test [9] concerns the target LigBCen9 (Leptospira; L. interrogans serovar Pomona is the only strain named). Description: SPR.
Test [10] addresses LigBCen7'-8 (Leptospira; L. interrogans serovar Pomona is the only strain named). In words: SPR.
Test [11] concerns the target LigAVar12 (Leptospira; L. interrogans serovar Pomona is the only strain named). Description: SPR.
For test [12], the target named is Gelatin-binding domain of human plasma fibronectin (human). In words: SEC-MALS; mixtures of Lig protein and GBD on Superose 6, 20 mM HEPES, 150 mM NaCl, pH 7.5.
Test [13] has the same target. In words: ITC; GBD in the cell (1 ml), Lig protein in the syringe (250 µl), 25 injections of 10 µl, 25°C, Tris buffer with 100 µM CaCl2; independent binding model.
Test [14] shares this target. Description: ELISA.

Sequence of Fibronectin gelatin binding domain (P02751 306-608): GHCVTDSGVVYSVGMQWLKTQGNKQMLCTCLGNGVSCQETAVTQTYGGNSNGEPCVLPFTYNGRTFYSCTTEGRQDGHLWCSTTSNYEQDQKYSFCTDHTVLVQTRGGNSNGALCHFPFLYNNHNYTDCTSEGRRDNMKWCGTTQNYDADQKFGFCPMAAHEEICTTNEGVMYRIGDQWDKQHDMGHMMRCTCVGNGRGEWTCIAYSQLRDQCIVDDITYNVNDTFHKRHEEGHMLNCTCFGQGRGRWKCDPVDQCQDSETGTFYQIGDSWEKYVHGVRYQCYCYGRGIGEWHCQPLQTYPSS

Turning to “Fibronectin gelatin binding domain (from UniProt P02751)”, the equilibrium dissociation constant (Kd) in test [1] is 5040 nM; in [2] it was 2870 nM; in [3], 4250 nM; in test [4], 6680 nM; in [5], 10400 nM; in test [6], 3940 nM. Moreover, the dissociation constant Kd in test [7] stood at 11000 nM.
For “Gelatin-binding domain of human plasma fibronectin (domain or fragment)”, the dissociation constant (Kd) in test [8] was found to be 1930 nM. Also, the results for the koff in test [9], in test [10] and in test [11] were 0.00473 s⁻¹, 0.00963 s⁻¹ and 0.00678 s⁻¹, respectively. The figures for the on-rate constant (kon) in [9], in test [10] and in test [11] were 560 M⁻¹ s⁻¹, 3570 M⁻¹ s⁻¹ and 2360 M⁻¹ s⁻¹, respectively.
In the case of LigAVar7'-9 (domain or fragment), in test [12], the stoichiometry N was 0.97 GBD: Lig. Moreover, in test [13], the 1/n is 0.98 GBD: Lig, the Kd came to 6110 nM, the dH is -29.2 kcal/mol and the stoichiometry N was 1.02 Lig: GBD. Besides, the Kd in test [14] was 6580 nM.
Turning to LigAVar7'-10 (domain or fragment), the stoichiometry N in test [12] is 2 GBD: Lig. For the same substance, in test [13], the 1/n is 1.96 GBD: Lig, the equilibrium dissociation constant (Kd) came to 4350 nM, the dH is -25.3 kcal/mol and the stoichiometry N was 0.51 Lig: GBD. In test [14], this substance registered a Kd of 4720 nM.
On to LigAVar7'-11 (domain or fragment), for which the stoichiometry N in [12] was 2.96 GBD: Lig. Further, in test [13], the 1/n was 2.98 GBD: Lig, the dissociation constant (Kd) stood at 3130 nM, the dH is -22.1 kcal/mol and the stoichiometry N is 0.335 Lig: GBD. In test [14], this substance showed a Kd of 3240 nM.
As to LigAVar7'-12 (domain or fragment), the stoichiometry N in test [12] is 4.04 GBD: Lig. In test [13], the 1/n was 3.92 GBD: Lig, the dissociation constant (Kd) turned out to be 2410 nM, the dH is -30.8 kcal/mol and the stoichiometry N was 0.255 Lig: GBD. The Kd in [14] amounted to 2440 nM.
On to LigAVar7'-13 (domain or fragment), for which, in test [12], the stoichiometry N is 5.05 GBD: Lig. In test [13], the 1/n was 4.92 GBD: Lig, the dissociation constant (Kd) is 47 nM, the dH is -94.9 kcal/mol and the stoichiometry N was 0.203 Lig: GBD. The substance also displayed a Kd in test [14] of 48 nM.
On to LigBCen7'-8 (domain or fragment), for which the stoichiometry N in test [12] is 1.01 GBD: Lig. In test [13], the 1/n was 1.01 GBD: Lig, the Kd was determined as 2280 nM, the dH was -20.4 kcal/mol and the stoichiometry N is 0.985 Lig: GBD.
Regarding LigBCen7'-9 (domain or fragment), in test [12], the stoichiometry N was 2.05 GBD: Lig. For the same substance, in test [13], the 1/n was 1.92 GBD: Lig, the Kd worked out at 1310 nM, the dH is -21.1 kcal/mol and the stoichiometry N was 0.52 Lig: GBD. Also, the Kd in test [14] stood at 1390 nM.
Take LigBCen7'-10 (domain or fragment): in [12], the stoichiometry N is 2 GBD: Lig. In [13], the 1/n is 1.96 GBD: Lig, the Kd was 1350 nM, the dH is -26.7 kcal/mol and the stoichiometry N was 0.51 Lig: GBD. This substance yielded a Kd in test [14] of 1460 nM.
Take LigBCen7'-11 (domain or fragment): the stoichiometry N in test [12] was 1.98 GBD: Lig. For the same substance, in test [13], the 1/n is 2.08 GBD: Lig, the Kd was 1390 nM, the dH was -29 kcal/mol and the stoichiometry N was 0.479 Lig: GBD. In test [14], this substance had a Kd of 1470 nM.
